To fix the notation:
B1: reovirus type 3 Dearing (T3D) σ1 fragment comprising the head domain and one β-spiral of the tail (σ1H; residues 293–455) (domain or fragment)
chain: GSSPNLRYPIADVSGGIGMSPNYRFRQSMWIGIVSYSGSGLNWRVQVNSDIFIVDDYIHICLPAFDGFSIADGGDLSLNFVTGLLPPLLTGDTEPAFHNDVVTYGAQTVAIGLSSGGAPQYMSKNLWVEQWQDGVLRLRVEGGGSITHSNSKWPAMTVSYPRSFT
notes: two non-native residues left at the N-terminus after removal of GST, numbered Gly291 and Ser292; reovirus attachment protein σ1, strain type 3 Dearing (T3D), residues 293-455 (head domain and one β-spiral of the tail); Trimer in the crystal; also called T3D σ1 head domain; not shown: GST, N-terminal, cleaved

Data set [1] concerns the target CAR (Homo sapiens) (UniProt P78310). Conditions: cited from earlier work.
Data set [2] deals with the molecule itself. Briefly: crystal structure; σ1H-D1 complex, 3.4 Å, space group P2_(1)2_(1)2; crystals from 0.1 M CHES pH 9.5, polyethylene glycol 3350, 20°C; two σ1H trimers each with three D1 monomers in the asymmetric unit.
Data set [3] concerns the molecule itself. Briefly: AUC; sedimentation equilibrium, 17.5/25/35 krpm, 25°C, 20 mM Tris pH 7.5, 100 mM NaCl; four concentrations 0.16 to 1.6 mg/mL; monomer-dimer model with variable amounts of tetramer; dimer to monomers.
Data set [4] deals with the molecule itself. As to the kind of experiment: AUC; sedimentation velocity, 50 krpm, 25°C, 20 mM Tris pH 7.5, 100 mM NaCl; five concentrations 0.06 to 1.31 mg/mL; interference optics.
Data set [5] has as its target B1. Briefly: crystal structure; σ1H-D1 complex, 3.4 Å, space group P2_(1)2_(1)2; crystals from 0.1 M CHES pH 9.5, polyethylene glycol 3350, 20°C; two σ1H trimers each with three D1 monomers in the asymmetric unit. The following applies: both partners purified.

In general, Kd refers to the free concentration of one partner at which half of the binding sites on the other are occupied at equilibrium, for simple one-to-one binding. A word on the stoichiometry N: it is a count of units in the complex or per binding partner.

As to CAR (from UniProt P78310), the Kd in data set [1] is 16 µM.
Turning to B1, in data set [2], the “stoichiometry N” value stood at 3.

B2: D1 domain of human junctional adhesion molecule-A (hJAM-A D1; residues 28–129) (domain or fragment)
chain: GSSVTVHSSEPEVRIPENNPVKLSCAYSGFSSPRVEWKFDQGDTTRLVCYNNKITASYEDRVTFLPTGITFKSVTREDTGTYTCMVSEEGGNSYGEVKVKLIVL
notes: two non-native residues left at the N-terminus after removal of GST, numbered Gly26 and Ser27; human junctional adhesion molecule-A, membrane-distal D1 domain, residues 28-129; Homodimer in solution at neutral pH; also called wt D1; source: E. coli BL21 (DE3) pLysS, purified (GSTrap, on-column thrombin cleavage, SEC); not shown: GST, N-terminal, cleaved
Turning to B2, the Kd in data set [3] turned out to be 11 µM. In addition, in data set [4], the “stoichiometry N” value was found to be 2. Further, the binding result in data set [5] was “binds”.
